Measured values published in the DeepSol protein solubility set.

Assay: soluble on expression in E. coli; label from the status in PepcDB or PDB records

Sequence | soluble on expression in E. coli
MSLNLREFKEFIDNEMIVILGQMDSPTQIFEHVFLGSEWNASNLEDLQNRGVRYILNVTREIDNFFPGVFEYHNIRVYDEEATDLLAYWNDTYKFISKAKKHGSKCLVHCKMGVSRSASTVIAYAMKEYGWNLDRAYDYVKERRTVTKPNPSFMRQLEEYQGILLASKEGHHHHHH | not soluble
MSLNNQDISIGKLSRLKIWITDNHLSDDQWSNTKKFIIIKITTEDGIEGWGEAFSINFREKGIAIIIKELFREISNIPNLSIKSFYNKISLLSDGHRGLDFSSATSAIEIALWDISGKLKNLPLNSLLTKSPKPNVPIYATCWSDLKKDTNDYLRQIEKFYGKKYGGIKIYPMLDSLSISIQFVEKVREIVGDELPLMLDLAVPEDLDQTKSFLKEVSSFNPYWIEEPVDGENISLLTEIKNTFNMKVVTGEKQSGLVHFRELISRNAADIFNPDISGMGGLIDIIEISNEASNNGIFISPHCWNSMSVSASAMLHVCSSIPNSEKAEIFPDYINFSKKFCELPFDIIDNKAHINKSAGLGIVIHEDILSELSIYSLDEKSNDEGHHHHHH | soluble
MSLNNRSETMKYKRIVFKVGTSSLTNEDGSLSRSKVKDITQQLAMLHEAGHELILVSSGAIAAGFGALGFKKRPTKIADKQASAAVGQGLLLEEYTTNLLLRQIVSAQILLTQDDFVDKRRYKNAHQALSVLLNRGAIPIINENDSVVIDELKVGDNDTLSAQVAAMVQADLLVFLTDVDGLYTGNPNSDPRAKRLERIETINREIIDMAGGAGSSNGTGGMLTKIKAATIATESGVPVYICSSLKSDSMIEAAEETEDGSYFVAQEKGLRTQKQWLAFYAQSQGSIWVDKGAAEALSQHGKSLLLSGIVEAEGVFSYGDIVTVFDKESGKSLGKGRVQFGASALEDILRSQKAKGVLIYRDDWISITPEIQLLFTEFEGHHHHHH | soluble
MSLNNVIFSQKLYDTAQMIVDGCMGDADPACQTACPMHTDVKQYVRMAGEGNFQGALDLIRSKLFLPQTLGRICAHPCEASCRRNTEFGQPISVAGIKRFVAEKMDNQDHWDLNIAPLTNKHIAIVGAGPAGAQAAIELRRQGHEVTIYEKLDVYGGMMRVGIPEYRLPRDVIDFEYSYLAMLGIKTQFGVEIGKDISFDTLRSEHDAVILAHGAHVGSIIPLPGHDNDGVFSAVEYLKEISETRQFPRACKRVMVIGGGDVAMDCARSSWRIGASDVYQCSLESLESLPASQIEIDESLEEGVEFNAGWGPVAIEHENGKVTGITIKKVLSIFDEQGNFAPQYSEESKTISVDTVVFATGQIVADITDGALEQTRGGRYVVDKQTLASSLEDVFVAGDACGGNIVIEAMALGRKAAMSVERFLTARPLTEDRDFEQEYSYSSRLDVPLPKGTVDTPRLHGELRDAEERKQDFAQVDLGFTEEQIKQEASRCLQCSCKLCMTECIMMNDFSDCPKTIFSDFVNNKSMDPLLAYSCNACDQCTIVCPKDFPMKEMFLGARTDFVKANNGESPMPGHKAINMHQKLGFSKIFTMAKRAVSTKEGHHHHHH | not soluble
MSLNNVKLLIAGSAFFAMSAQAADRVSIDVKVTLEAAACTPILSNGGVVNFGSHSVNRLSTQHYTQIGTRNINMTITCESATGIAITARDTRMDSMTTGKDSGGQSGVKYTLNGGGYISQTTRLFGLGKTKDNKNIGSYAVLIDSNNISASNGSQTLAVSIAGADAVITGQKRAWQTLTAYPLAVDQSYYYTFVKPGETTPTPVTNAIIPLQVSASIANDLGGSEKIELDGKAVISVVYLEGHHHHHH | not soluble
MSLNPASPFATLTDRIDWQKVDGLVPAIVQDFQSSQVLMMGYMNPEALQKTLDTQQVTFFSRSKQRLWTKGETSGHVLQLKNIALDCDQDTLLVKVNPIGPTCHTGTVTCWDGDAQEESQMVWLHQLEQLLAERKNADPSSSYTASLYARGTKRIAQKVGEEGVEVALAATAGDKEELICESADLMYHLLVLLQEQGLAMNDVINKLKERHKEGHHHHHH | soluble
